{"source": "paper PMC3314686", "about": "(2012)", "parents": {"B1": {"name": "GFP-DOR (human DOR/TP53INP2, full length) [modified: [35S]methionine label; [35S]methionine label] [human] / GST-LC3B (full-length proform) [human] (parent complex)", "chain 1": "MFQRLSSLFFSTPSPPEDPDCPRAFVSEEDEVDGWLIIDLPDSYAAPPSPGAAPAPAGRPPPAPSLMDESWFVTPPACFTAEGPGLGPARLQSSPLEDLLIEHPSMSVYVTGSTIVLEPGSPSPLPDAALPDGDLSEGELTPARREPRAARHAAPLPARAALLEKAGQVRRLQRARQRAERHALSAKAVQRQNRARESRPRRSKNQSSFIYQPCQRQFNY", "chain 2": "not shown"}}}
{"variants_of": "B1", "assay": "GST pull-down; in vitro translated [35S]methionine-labelled GFP fusion; three independent experiments; parent: 21; read off a plot", "units": {"response": "% Binding"}}
{"variant": "chain 1 W35A, chain 1 I38A", "response": "~3.4"}
